Key:
Assay in all cases: pre-steady-state rapid-quench kinetics
MGMT G132R = MGMT G132R (Homo sapiens, UniProt P16455 1-207, G132R)
MGMT G156C = MGMT G156C (Homo sapiens, UniProt P16455 1-207, G156C)
MGMT WT = MGMT WT (Homo sapiens, UniProt P16455 1-207)
MGMT WT, sequence (P16455 whole entry): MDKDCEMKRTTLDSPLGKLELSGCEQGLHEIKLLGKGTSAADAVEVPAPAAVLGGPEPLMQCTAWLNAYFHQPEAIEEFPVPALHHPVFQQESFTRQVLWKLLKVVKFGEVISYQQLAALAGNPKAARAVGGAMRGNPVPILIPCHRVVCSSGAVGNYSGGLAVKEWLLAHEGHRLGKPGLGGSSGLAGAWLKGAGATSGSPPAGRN

MGMT G156C, sequence (P16455 whole entry G156C): as the sequence (P16455 whole entry) above, with G156C counted along it
MGMT G132R, sequence (P16455 whole entry G132R): as the sequence (P16455 whole entry) above, with G132R counted along it

B1: PvuIITopD/PvuIIBottom (O6MeG 18 bp duplex) (dsDNA)
DNA 1: GCCCGGCCAGCTGCAGTT
DNA 2: AACTGCAGCTGGCCGGGC
modifications: O6-methylguanine at position 13 of strand 1 (printed as X), paired with C
MGMT G132R
  Kd: 14 ± 3 nM
MGMT G156C
  Kd: 240 ± 60 nM
MGMT WT
  Kd: 6.2 ± 0.7 nM

Source: paper PMC3720794
